The results in this text go back to patent US20240366756A1, “COMBINATIONS AND USES THEREOF” (Incyte Corporation, priority 2011, published 2024).

Marks after values point to notes of the source that are not given here.

In the test the test system is RAMOS human Burkitt's lymphoma cells. Nature of the test: Human Non-Hodgkin RAMOS tumor in SCID mice, survival model. The test is classed as in vivo. The following applies: for Median Survival (Days Post-Inoculation): 3 mg/kg i.v., treatment related deaths excluded; for Survival, pairwise comparison (Holm-Sidak) vs. Group 2: Group 2 = Bendamustine (13 mg/kg); for Survival, pairwise comparison (Holm-Sidak) vs. Group 3: Group 3 = Bendamustine (16 mg/kg); for Survival, pairwise comparison (Holm-Sidak) vs. Group 5: Group 5 = MOR00208/Bendamustine (3/13 mg/kg); for Survival, pairwise comparison (Holm-Sidak) vs. Group 6: Group 6 = MOR00208/Bendamustine (3/16 mg/kg); for Survival, pairwise comparison (Holm-Sidak) vs. Group 1: Group 1 = MOR00208 (3 mg/kg). The method, then: Cyclophosphamide (Baxter, Lot. No. 1A548C); Vehicle Control: 0.9% sodium chloride, 25 mg/ml mannitol, pH 6.5-6.8 (adjusted with 0.01 M NaOH); SCID Mice (University of Adelaide, Waite Campus, Urrbaraie, SA, Australia, Strain C.B.-17-Igh-1^b-Prkdc^scid); RAMOS human Burkitt's lymphoma cells (ATCC number CRL-1596); Ref_mAb_33_IgG_Xen (10 mg/mL in PBS, referred to as Ref_mAb_33); Bendamustine (Mundipharma, Lot No. 83889).
SCID mice were pre-treated with Cyclophosphamide (75 mg/kg, i.p., twice daily) for two days prior to RAMOS cell inoculation (Day −2 and −1). On the day of inoculation (Day 0), the mice were separated into seven groups of ten mice each, and inoculated with 1×10^6 RAMOS cells each intravenously into the tail vein. The planned dosing regimen for each group is shown in Table 5 and commenced on Day 3. The study duration was 60 days.
From the raw data shown in Table 6, both the median survival in days and median increase in lifespan were calculated. All treatment related deaths were excluded in the calculations.
Median % Increased Lifespan (ILS) is calculated as follows: […]
The classification of the MOR000208/Bendamustine combination therapy (combo) effect was evaluated by comparing the ILS of the combination with the added ILS of the respective monotherapies:
Synergy/Potentiation*: ILSCombo>ILSMOR00208 3 mg/kg+ILSBendamustine. Synergistic effects are classified as potentiation if at least one of the monotherapies has no effect. Additivity: ILSCombo=ILSMOR00208 3 mg/kg+ILSBendamustine. Antagonism: ILSCombo<ILSMOR00208 3 mg/kg+ILSBendamustine.
In addition to an analysis of the data for purposes of identifying synergy, the following statistical analysis was also completed. Statistical analyses were carried out using the median values. Any animal that died unexpectedly or was culled prior to Day 17 of the study in the Test Article treatment groups was excluded from survival analysis calculation. The death/culling of these animals was attributed to compound toxicity rather than disease progression as they occurred well in advance of the first deaths in the Vehicle Control animals. A survival curve was created using the product limit of Kaplan and Meier, and survival curves compared using the log-rank (Mantel-Cox) test. Where significant differences were found, All Pairwise Multiple Comparison (Holm-Sidak Test) was performed. Comparison was done between all groups. In addition the comparison of the following groups were summarised in separate figures for each test article: Vehicle Control/Ref_mAb (group 10) against Bendamustine groups (Groups 2, 3 and 4) and Vehicle Control/Ref_mAb (group 10) against Combination groups (Groups 5 and 6) or respective MOR00208 monotherapy group (group 1). A p value of less than 0.05 was considered significant.

Setting [1] is: Table 8, listed as Bendamustine = 13 mg/kg.
Where [2] appears, read: Table 9, listed as combination = 3/13 mg/kg.
Setting [3] is: Table 10, listed as combination = 3/16 mg/kg.
The mark [4] stands for this setting: untitled repeat of Table 8, listed as Bendamustine = 13 mg/kg.

On to “MOR00208: anti-CD19 antibody; variable domains shown in FIG. 3, heavy and light chain Fc regions in FIG. 4”, for which the “Median Survival (Days Post-Inoculation)” value is 32^a Days Post-Inoculation. Under “3 mg/kg, vs. vehicle control/Ref_mAb_33”, the “Median % Increase in Lifespan (ILS)” value was found to be 25.5%. Further, the “Survival, pairwise comparison (Holm-Sidak) vs. Group 2” value (“Survival … (Holm-Sidak) vs. Group 2” below) (Table 8) is “***Yes (***Yes: There is a statistically significant difference (p < 0.001).)”. Further, the “Survival, pairwise comparison (Holm-Sidak) vs. Group 3” value (“Survival … (Holm-Sidak) vs. Group 3” for short) under setting [1] was “***Yes (***Yes: There is a statistically significant difference (p < 0.001).)”. The “Survival … (Holm-Sidak) vs. Group 2” value under setting [2] is “***Yes (***Yes: There is a statistically significant difference (p < 0.001).)”. For the same molecule, the “Survival, pairwise comparison (Holm-Sidak) vs. Group 5” value (Table 9) is reported as “*Yes (*Yes: There is a statistically significant difference (p < 0.05).)”. Further, the “Survival … (Holm-Sidak) vs. Group 3” value under setting [3] was “***Yes (***Yes: There is a statistically significant difference (p < 0.001).)”. Besides, the “Survival, pairwise comparison (Holm-Sidak) vs. Group 6” value (Table 10) is recorded as “***Yes (***Yes: There is a statistically significant difference (p < 0.001).)”. Besides, where the note is “untitled repeat of Table 8”, the “Survival … (Holm-Sidak) vs. Group 2” value is recorded as “***Yes (***Yes: There is a statistically significant difference (p < 0.001).)”. Besides, the “Survival … (Holm-Sidak) vs. Group 3” value under setting [4] is recorded as “***Yes (***Yes: There is a statistically significant difference (p < 0.001).)”.

B1: RefmAb33: antibody specific for RSV, used as isotype control, shares the same Fc region as MOR00208 (SEQ ID NO: 8, 9) (antibody)
heavy: QVTLRESGPALVKPTQTLTLTCTFSGFSLSTAGMSVGWIRQPPGKALEWLADIWWDDKKHYNPSLKDRLTISKDTSKNQVVLKVTNMDPADTATYYCARDMIFNFYFDVWGQGTTVTVSSASTKGPSVFPLAPSSKSTSGGTAALGCLVKDYFPEPVTVSWNSGALTSGVHTFPAVLQSSGLYSLSSVVTVPSSSLGTQTYICNVNHKPSNTKVDKKVEPKSCDKTHTCPPCPAPELLGGPDVFLFPPKPKDTLMISRTPEVTCVVVDVSHEDPEVQFNWYVDGVEVHNAKTKPREEQFNSTFRVVSVLTVVHQDWLNGKEYKCKVSNKALPAPEEKTISKTKGQPREPQVYTLPPSREEMTKNQVSLTCLVKGFYPSDIAVEWESNGQPENNYKTTPPMLDSDGSFFLYSKLTVDKSRWQQGNVFSCSVMHEALHNHYTQKSLSLSPGK
light: DIQMTQSPSTLSASVGDRVTITCSASSRVGYMHWYQQKPGKAPKLLIYDTSKLASGVPSRFSGSGSGTEFTLTISSLQPDDFATYYCFQGSGYPFTFGGGTKVEIKRTVAAPSVFIFPPSDEQLKSGTASVVCLLNNFYPREAKVQWKVDNALQSGNSQESVTEQDSKDSTYSLSSTLTLSKADYEKHKVYACEVTHQGLSSPVTKSFNRGEC
modifications: Heavy chain RefMab33; Light chain RefMab33
As for B1, the “Median Survival (Days Post-Inoculation)” value is 25.5 Days Post-Inoculation. Also, under “Table 8”, the “Survival, pairwise comparison (Holm-Sidak) vs. Group 1” value (from here on “Survival … (Holm-Sidak) vs. Group 1”) was “***Yes (***Yes: There is a statistically significant difference (p < 0.001).)” and the “Survival … (Holm-Sidak) vs. Group 2” value was “*Yes (*Yes: There is a statistically significant difference (p < 0.05).)”. Further, the “Survival … (Holm-Sidak) vs. Group 3” value under setting [1] is reported as “No (No: There is no statistically significant difference (p ≥ 0.05).)”. Moreover, for the setting “Table 9”, the “Survival … (Holm-Sidak) vs. Group 1” value is on record as “***Yes (***Yes: There is a statistically significant difference (p < 0.001).)” and the “Survival, pairwise comparison (Holm-Sidak) vs. Group 5” value is “***Yes (***Yes: There is a statistically significant difference (p < 0.001).)”. For the same molecule, the “Survival … (Holm-Sidak) vs. Group 2” value under setting [2] was “*Yes (*Yes: There is a statistically significant difference (p < 0.05).)”. Besides, under “Table 10”, the “Survival … (Holm-Sidak) vs. Group 1” value was “***Yes (***Yes: There is a statistically significant difference (p < 0.001).)” and the “Survival, pairwise comparison (Holm-Sidak) vs. Group 6” value is recorded as “***Yes (***Yes: There is a statistically significant difference (p < 0.001).)”. Besides, the “Survival … (Holm-Sidak) vs. Group 3” value under setting [3] is reported as “No (No: There is no statistically significant difference (p ≥ 0.05).)”. Further, under “untitled repeat of Table 8”, the “Survival … (Holm-Sidak) vs. Group 1” value is “***Yes (***Yes: There is a statistically significant difference (p < 0.001).)” and the “Survival … (Holm-Sidak) vs. Group 2” value is on record as “*Yes (*Yes: There is a statistically significant difference (p < 0.05).)”. In addition, the “Survival … (Holm-Sidak) vs. Group 3” value under setting [4] is recorded as “No (No: There is no statistically significant difference (p ≥ 0.05).)”.
